Data published in ChEMBL document CHEMBL2074303, “Transport of the glutathione conjugate of ethacrynic acid by the human multidrug resistance protein MRP” (FEBS Lett, 1996).

Substrate: CCC(CSC[C@@H](NC(=O)CC[C@H](N)C(=O)O)C(=O)NCC(=O)O)C(=O)c1ccc(OCC(=O)O)c(Cl)c1Cl
Test: TP_TRANSPORTER: uptake in membrane vesicles from S1(MRP) cells
Type: functional, cell membranes, Membrane vesicle

B1: Multidrug resistance-associated protein 1 (Homo sapiens) (protein)
chain: MALRGFCSADGSDPLWDWNVTWNTSNPDFTKCFQNTVLVWVPCFYLWACFPFYFLYLSRHDRGYIQMTPLNKTKTALGFLLWIVCWADLFYSFWERSRGIFLAPVFLVSPTLLGITMLLATFLIQLERRKGVQSSGIMLTFWLVALVCALAILRSKIMTALKEDAQVDLFRDITFYVYFSLLLIQLVLSCFSDRSPLFSETIHDPNPCPESSASFLSRITFWWITGLIVRGYRQPLEGSDLWSLNKEDTSEQVVPVLVKNWKKECAKTRKQPVKVVYSSKDPAQPKESSKVDANEEVEALIVKSPQKEWNPSLFKVLYKTFGPYFLMSFFFKAIHDLMMFSGPQILKLLIKFVNDTKAPDWQGYFYTVLLFVTACLQTLVLHQYFHICFVSGMRIKTAVIGAVYRKALVITNSARKSSTVGEIVNLMSVDAQRFMDLATYINMIWSAPLQVILALYLLWLNLGPSVLAGVAVMVLMVPVNAVMAMKTKTYQVAHMKSKDNRIKLMNEILNGIKVLKLYAWELAFKDKVLAIRQEELKVLKKSAYLSAVGTFTWVCTPFLVALCTFAVYVTIDENNILDAQTAFVSLALFNILRFPLNILPMVISSIVQASVSLKRLRIFLSHEELEPDSIERRPVKDGGGTNSITVRNATFTWARSDPPTLNGITFSIPEGALVAVVGQVGCGKSSLLSALLAEMDKVEGHVAIKGSVAYVPQQAWIQNDSLRENILFGCQLEEPYYRSVIQACALLPDLEILPSGDRTEIGEKGVNLSGGQKQRVSLARAVYSNADIYLFDDPLSAVDAHVGKHIFENVIGPKGMLKNKTRILVTHSMSYLPQVDVIIVMSGGKISEMGSYQELLARDGAFAEFLRTYASTEQEQDAEENGVTGVSGPGKEAKQMENGMLVTDSAGKQLQRQLSSSSSYSGDISRHHNSTAELQKAEAKKEETWKLMEADKAQTGQVKLSVYWDYMKAIGLFISFLSIFLFMCNHVSALASNYWLSLWTDDPIVNGTQEHTKVRLSVYGALGISQGIAVFGYSMAVSIGGILASRCLHVDLLHSILRSPMSFFERTPSGNLVNRFSKELDTVDSMIPEVIKMFMGSLFNVIGACIVILLATPIAAIIIPPLGLIYFFVQRFYVASSRQLKRLESVSRSPVYSHFNETLLGVSVIRAFEEQERFIHQSDLKVDENQKAYYPSIVANRWLAVRLECVGNCIVLFAALFAVISRHSLSAGLVGLSVSYSLQVTTYLNWLVRMSSEMETNIVAVERLKEYSETEKEAPWQIQETAPPSSWPQVGRVEFRNYCLRYREDLDFVLRHINVTINGGEKVGIVGRTGAGKSSLTLGLFRINESAEGEIIIDGINIAKIGLHDLRFKITIIPQDPVLFSGSLRMNLDPFSQYSDEEVWTSLELAHLKDFVSALPDKLDHECAEGGENLSVGQRQLVCLARALLRKTKILVLDEATAAVDLETDDLIQSTIRTQFEDCTVLTIAHRLNTIMDYTRVIVLDKGEIQEYGAPSDLLQQRGLFYSMAKDAGLV
Km: 5 µM
